Measurements reported in article PMC12135372, “Structural and biochemical characterization of the 3′-5′ tRNA splicing ligases”.

T1: Tb-RtcB R237C (Thermococcus barophilus, UniProt F0LKB8 1-479, R237C)
T1 sequence: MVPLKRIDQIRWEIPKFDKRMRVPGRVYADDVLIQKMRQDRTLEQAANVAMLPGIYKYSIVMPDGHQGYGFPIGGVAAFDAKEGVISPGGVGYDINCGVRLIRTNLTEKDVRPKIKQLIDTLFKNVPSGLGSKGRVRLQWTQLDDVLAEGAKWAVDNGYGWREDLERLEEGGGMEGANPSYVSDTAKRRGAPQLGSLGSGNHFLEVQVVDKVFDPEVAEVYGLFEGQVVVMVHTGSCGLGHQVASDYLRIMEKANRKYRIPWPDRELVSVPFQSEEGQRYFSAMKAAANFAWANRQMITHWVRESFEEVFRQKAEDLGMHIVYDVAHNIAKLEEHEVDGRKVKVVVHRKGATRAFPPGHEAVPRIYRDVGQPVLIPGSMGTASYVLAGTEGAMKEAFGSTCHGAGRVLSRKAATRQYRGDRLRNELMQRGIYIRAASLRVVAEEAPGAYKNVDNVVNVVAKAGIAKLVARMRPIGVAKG

T2: Tb-RtcB L130C (Thermococcus barophilus, UniProt F0LKB8 1-479, L130C)
T2 sequence: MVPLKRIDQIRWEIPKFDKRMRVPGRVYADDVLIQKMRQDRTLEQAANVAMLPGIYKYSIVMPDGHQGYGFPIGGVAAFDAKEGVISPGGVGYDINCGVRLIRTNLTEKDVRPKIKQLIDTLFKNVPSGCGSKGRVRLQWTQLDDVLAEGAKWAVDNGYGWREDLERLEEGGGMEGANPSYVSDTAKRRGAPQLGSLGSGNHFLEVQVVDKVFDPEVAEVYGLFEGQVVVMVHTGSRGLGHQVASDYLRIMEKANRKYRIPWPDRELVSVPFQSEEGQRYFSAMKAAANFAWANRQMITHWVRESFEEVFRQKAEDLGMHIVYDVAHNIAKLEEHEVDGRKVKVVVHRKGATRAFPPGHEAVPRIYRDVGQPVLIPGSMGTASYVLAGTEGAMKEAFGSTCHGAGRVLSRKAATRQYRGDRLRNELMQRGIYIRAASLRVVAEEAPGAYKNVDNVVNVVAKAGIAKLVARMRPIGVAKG

T3: Tb-RtcB S199C (Thermococcus barophilus, UniProt F0LKB8 1-479, S199C)
T3 sequence: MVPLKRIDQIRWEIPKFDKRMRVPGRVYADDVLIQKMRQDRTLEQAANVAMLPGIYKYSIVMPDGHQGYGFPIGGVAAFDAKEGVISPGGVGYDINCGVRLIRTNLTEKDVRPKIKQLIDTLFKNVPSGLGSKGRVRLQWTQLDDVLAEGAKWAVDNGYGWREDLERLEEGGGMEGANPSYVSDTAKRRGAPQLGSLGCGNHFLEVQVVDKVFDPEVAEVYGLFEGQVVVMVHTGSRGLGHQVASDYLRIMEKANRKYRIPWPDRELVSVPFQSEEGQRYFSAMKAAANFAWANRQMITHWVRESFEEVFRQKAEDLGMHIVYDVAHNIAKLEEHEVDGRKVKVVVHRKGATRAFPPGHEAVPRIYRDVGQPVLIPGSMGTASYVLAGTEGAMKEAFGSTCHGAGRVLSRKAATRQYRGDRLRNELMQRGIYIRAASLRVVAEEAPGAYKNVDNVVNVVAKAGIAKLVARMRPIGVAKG


Key:
Assay in all cases: disulfide (cystamine) crosslinking, SDS-PAGE; 2.5 mM MnCl2; MST: 25 mM Hepes pH 7.5, 150 mM NaCl, 1 mM DTT, with or without 2 mM GTP and 2 mM MnCl2, 20 nM Cy5-tRNA, temperature not stated; crosslinking: 50 mM Tris pH 7.5, 25 mM NaCl, 25 mM KCl, 30% glycerol, 2.5 mM MnCl2, 0-1 mM DTT, 37 C 2 h then 24 C 14 h
Settings in all cases: protein: recombinant; tags: His6-SUMO removed; single strand
Tb-RtcB R237C = biological target: T1, Tb-RtcB R237C
Tb-RtcB L130C = biological target: T2, Tb-RtcB L130C
Tb-RtcB S199C = biological target: T3, Tb-RtcB S199C

Binder	binding result (Tb-RtcB R237C)	binding result (Tb-RtcB L130C)	binding result (Tb-RtcB S199C)
AAACACCGGUGGAGG (ssRNA, cystamine on phosphate between nt 1 and 2; 2'-F at nt 1; 3'-phosphate) [RNA-2]	binds	–	–
AAACACCGGUGGAGG (ssRNA, cystamine on phosphate between nt 2 and 3; 2'-F at nt 2; 3'-phosphate) [RNA-1]	binds	binds	binds
